This passage reports Kd results from article PMC2935386.

Usually Kd stands for the free concentration of one partner at which half of the binding sites on the other are occupied at equilibrium, for simple one-to-one binding. Higher therefore signals a looser complex.

The experiment has as its target fluorescein-labelled zinc finger region of GATA2 (GATA2-Zf), residues 291-412 (UniProt P23769). Briefly: fluorescence polarisation; fluorescence anisotropy; 10nM fluorescein-labeled GATA2-Zf titrated with unlabeled, unliganded TR DBD-LBD or TR DBD, 1nM to 10.000nM; 10°C, 50mM NaCl, 20mM Hepes pH8.0, 3mM dithiothreitol, 5% glycerol.

Sequence of fluorescein-labelled zinc finger region of GATA2 (GATA2-Zf), residues 291-412 (P23769 291-412): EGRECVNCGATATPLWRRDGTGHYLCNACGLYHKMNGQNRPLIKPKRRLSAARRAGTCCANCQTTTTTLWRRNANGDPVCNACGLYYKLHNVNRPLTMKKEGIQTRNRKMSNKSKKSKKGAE

“human TRβ1ΔAB/EF (TR DBD), thyroid hormone receptor β1 residues 102-198, poly-histidine construct (from UniProt P10828-1 102-198) (domain or fragment)” displayed a Kd of 1930 nM.
